Reference: the Human Domainome abundance scans (Beltran et al. 2025)
± gives the uncertainty stated by the source.

B1: Cell division cycle and apoptosis regulator protein 1, residues 625 to 674; numbered along this chain, Q8IX12 (parent)
chain: ISTPTHWSKLDPKTMKVNDLRKELESRALSSKGLKSQLIARLTKQLKVEE

Variants of: B1
Test: abundance fitness (aPCA) (normalised: wild type 0, dead -1); higher = more abundant; growth selection in yeast, the domain comes from the species named
Details: Homo sapiens

Abundance fitness: each site, then its substitutions
R27: P -0.784 ± 0.12 | F -1.02 ± 0.16 | V -0.678 ± 0.055 | D -0.747 ± 0.06 | Y -0.995 ± 0.21 | Q -0.845 ± 0.098 | M -0.591 ± 0.082 | H -0.765 ± 0.11 | K -0.822 ± 0.089 | A -0.713 ± 0.064 | G -0.743 ± 0.045 | L -0.805 ± 0.049 | N -0.871 ± 0.1 | I -1.1 ± 0.14 | T -0.948 ± 0.14 | S -0.818 ± 0.043 | C -0.776 ± 0.083
L34: K 0.079 ± 0.038 | E -0.113 ± 0.031 | I -0.069 ± 0.041 | S -0.016 ± 0.037 | Y -0.033 ± 0.063 | N -0.157 ± 0.067 | Q -0.015 ± 0.037 | M -0.072 ± 0.051 | T -0.06 ± 0.045 | R 0.048 ± 0.034 | C -0.075 ± 0.043 | P -0.011 ± 0.055 | D -0.062 ± 0.067 | F -0.195 ± 0.052 | A -0.111 ± 0.03 | H -0.026 ± 0.043 | W -0.151 ± 0.034
S26: M 0.073 ± 0.051 | D 0.031 ± 0.062 | I -0.012 ± 0.068 | E 0.026 ± 0.039 | H 0.053 ± 0.074 | P -0.61 ± 0.056 | R 0.118 ± 0.035 | L 0.118 ± 0.038 | A 0.088 ± 0.048 | N 0.025 ± 0.037 | W 0.047 ± 0.029 | K 0.197 ± 0.059 | Y 0.044 ± 0.065 | C 0.08 ± 0.04 | F 0.028 ± 0.06 | T 0.106 ± 0.047 | Q 0.001 ± 0.061 | G 0.089 ± 0.035
L20: M -0.115 ± 0.032 | S -0.859 ± 0.058 | P -0.899 ± 0.092 | I 0.136 ± 0.063 | H -0.752 ± 0.16 | C -0.416 ± 0.077 | Y -0.751 ± 0.11 | F -0.65 ± 0.067 | Q -0.621 ± 0.076 | N -1.08 ± 0.22 | W -0.833 ± 0.09 | V -0.284 ± 0.039 | A -0.618 ± 0.035 | T -0.727 ± 0.06 | D -0.741 ± 0.083 | G -0.89 ± 0.044 | E -0.788 ± 0.052
S36: T -0.049 ± 0.052 | R -0.115 ± 0.032 | V -0.105 ± 0.043 | P -0.005 ± 0.048 | W -0.114 ± 0.032 | N -0.146 ± 0.064 | F -0.186 ± 0.05 | K -0.118 ± 0.062 | H -0.195 ± 0.058 | M -0.169 ± 0.05 | A -0.121 ± 0.043 | Y -0.115 ± 0.043 | D -0.085 ± 0.065 | L -0.159 ± 0.037 | E -0.151 ± 0.047
L24: M -0.678 ± 0.062 | K -0.879 ± 0.056 | F -0.825 ± 0.068 | A -0.829 ± 0.036 | G -0.905 ± 0.064 | R -0.87 ± 0.052 | V -0.685 ± 0.038 | P -0.778 ± 0.067 | H -0.742 ± 0.15 | T -0.77 ± 0.036 | W -1.11 ± 0.15 | Q -0.891 ± 0.071 | S -0.806 ± 0.051 | Y -1.01 ± 0.19 | N -0.991 ± 0.13 | E -0.665 ± 0.053 | C -0.393 ± 0.054 | D -0.881 ± 0.13 | I -0.586 ± 0.083
L38: A -0.534 ± 0.03 | K -0.324 ± 0.046 | Q -0.366 ± 0.046 | E -0.423 ± 0.035 | T -0.63 ± 0.047 | H -0.628 ± 0.07 | S -0.592 ± 0.044 | G -0.603 ± 0.034 | P -0.634 ± 0.046 | R -0.583 ± 0.046 | D -0.332 ± 0.045 | M -0.049 ± 0.052 | C -0.477 ± 0.066 | N -0.666 ± 0.086 | F -0.866 ± 0.085
E23: G -0.904 ± 0.061 | H -0.48 ± 0.067 | T -0.672 ± 0.05 | N -0.563 ± 0.16 | K -1 ± 0.061 | L -0.913 ± 0.07 | C -0.677 ± 0.065 | W -0.661 ± 0.054 | V -0.924 ± 0.081 | D -0.916 ± 0.18 | S -0.617 ± 0.048 | Q -0.228 ± 0.06 | P -0.805 ± 0.1 | F -0.737 ± 0.076 | R -1.07 ± 0.062 | M -0.965 ± 0.13
K22: R -0.023 ± 0.03 | D -0.239 ± 0.075 | M -0.028 ± 0.052 | S -0.004 ± 0.043 | Q -0.136 ± 0.057 | G -0.233 ± 0.038 | E -0.242 ± 0.059 | I -0.065 ± 0.047 | P -0.491 ± 0.035 | A -0.148 ± 0.044 | F -0.16 ± 0.06 | N -0.097 ± 0.04 | W -0.209 ± 0.036 | C -0.134 ± 0.05 | H 0.024 ± 0.039
K32: F -0.213 ± 0.047 | R -0.105 ± 0.034 | T -0.066 ± 0.049 | Y -0.138 ± 0.045 | W -0.089 ± 0.049 | H -0.05 ± 0.062 | L -0.071 ± 0.036 | D -0.092 ± 0.043 | E -0.104 ± 0.032 | A -0.153 ± 0.043 | V -0.233 ± 0.032 | G -0.131 ± 0.045 | C -0.18 ± 0.036 | S -0.142 ± 0.042 | N -0.143 ± 0.038
S31: N -0.095 ± 0.059 | V -0.041 ± 0.041 | C -0.013 ± 0.046 | H 0.031 ± 0.059 | F -0.101 ± 0.053 | D -0.156 ± 0.05 | K -0.132 ± 0.057 | P -0.062 ± 0.045 | W -0.097 ± 0.029 | L -0.084 ± 0.032 | M -0.066 ± 0.038 | A 0.005 ± 0.034 | G 0.014 ± 0.027 | E -0.106 ± 0.044 | T -0.052 ± 0.038 | Y -0.123 ± 0.071 | Q 0.079 ± 0.032 | I 0.047 ± 0.06
A28: I 0.074 ± 0.064 | Q 0.151 ± 0.042 | D 0.129 ± 0.064 | P -0.782 ± 0.064 | V -0.016 ± 0.033 | M 0.072 ± 0.036 | H -0.108 ± 0.076 | L 0.04 ± 0.042 | Y 0.181 ± 0.069 | S 0.138 ± 0.031 | F 0.003 ± 0.052 | T 0.085 ± 0.037 | W -0.053 ± 0.041 | G 0.145 ± 0.033 | R 0.151 ± 0.029 | E 0.038 ± 0.055 | C 0.054 ± 0.057
S30: P 0.036 ± 0.048 | E -0.071 ± 0.043 | G -0.026 ± 0.037 | N 0.126 ± 0.055 | W -0.283 ± 0.043 | D 0.016 ± 0.059 | I -0.185 ± 0.071 | M -0.067 ± 0.035 | A -0.05 ± 0.045 | C 0.069 ± 0.048 | H -0.152 ± 0.064 | K 0.037 ± 0.047 | Q -0.148 ± 0.045 | T -0.034 ± 0.033 | Y -0.141 ± 0.048 | L -0.184 ± 0.029 | V -0.047 ± 0.034
D19: F -0.035 ± 0.043 | H 0.045 ± 0.034 | G -0.196 ± 0.035 | P -0.334 ± 0.034 | I -0.044 ± 0.034 | C -0.02 ± 0.037 | V -0.167 ± 0.031 | E -0.275 ± 0.046 | M 0.031 ± 0.033 | Y -0.023 ± 0.032 | Q 0.033 ± 0.03 | T -0.047 ± 0.03 | R -0.073 ± 0.029 | N 0.063 ± 0.032 | S 0.038 ± 0.026 | K -0.33 ± 0.035 | L 0.021 ± 0.029
Q37: M -0.042 ± 0.034 | F -0.256 ± 0.047 | H -0.455 ± 0.11 | Y -0.274 ± 0.042 | S -0.061 ± 0.035 | K -0.108 ± 0.037 | R -0.168 ± 0.032 | W -0.459 ± 0.054 | E 0.058 ± 0.051 | I -0.513 ± 0.056 | G -0.253 ± 0.038 | P -0.231 ± 0.054 | L -0.178 ± 0.03 | C -0.04 ± 0.054 | T -0.093 ± 0.032 | A 0.004 ± 0.048 | V 0.002 ± 0.033
K35: M -0.244 ± 0.048 | E -0.074 ± 0.048 | V -0.264 ± 0.038 | W -0.482 ± 0.032 | S -0.288 ± 0.044 | N -0.212 ± 0.054 | D -0.212 ± 0.054 | G -0.356 ± 0.031 | A -0.341 ± 0.051 | T -0.276 ± 0.061 | Q -0.299 ± 0.08 | C -0.355 ± 0.058 | Y -0.333 ± 0.045 | F -0.419 ± 0.08 | I -0.249 ± 0.055 | L -0.243 ± 0.043
E25: Q -0.097 ± 0.035 | K 0.002 ± 0.043 | Y -0.799 ± 0.15 | P -1.02 ± 0.12 | F -0.568 ± 0.038 | R -0.154 ± 0.043 | A -0.443 ± 0.056 | V -0.155 ± 0.044 | T -0.18 ± 0.047 | W -0.304 ± 0.049 | S -0.539 ± 0.058 | I -0.274 ± 0.066 | D -0.581 ± 0.081 | M -0.076 ± 0.044
R21: Y -0.256 ± 0.044 | H -0.199 ± 0.068 | D -1 ± 0.17 | E -0.541 ± 0.036 | T -0.155 ± 0.037 | P -0.682 ± 0.098 | C -0.039 ± 0.048 | K -0.117 ± 0.072 | Q -0.259 ± 0.087 | I -0.006 ± 0.07 | F -0.419 ± 0.042 | A -0.192 ± 0.045 | G -0.603 ± 0.04 | S -0.191 ± 0.049 | M 0.036 ± 0.049 | L -0.215 ± 0.039 | W -0.53 ± 0.055 | V -0.106 ± 0.037
G33: A -0.891 ± 0.059 | R -1.04 ± 0.046 | W -1.07 ± 0.073 | M -1.03 ± 0.13 | L -1.04 ± 0.052 | I -1.04 ± 0.25 | V -0.919 ± 0.055 | K -0.939 ± 0.071 | D -0.62 ± 0.079 | P -1.02 ± 0.077 | Q -0.819 ± 0.05 | E -0.857 ± 0.058 | F -0.98 ± 0.14 | T -1.03 ± 0.055 | Y -1.03 ± 0.17 | N -1.2 ± 0.3 | H -0.932 ± 0.14 | S -0.934 ± 0.063 | C -1 ± 0.073
L29: F -0.112 ± 0.058 | N -0.552 ± 0.083 | D -0.732 ± 0.1 | S -0.368 ± 0.031 | A -0.899 ± 0.059 | Q -0.172 ± 0.051 | P -0.86 ± 0.098 | G -0.853 ± 0.04 | H -0.286 ± 0.066 | W -0.746 ± 0.039 | K -0.226 ± 0.056 | M -0.021 ± 0.052 | Y -0.384 ± 0.048 | R -0.213 ± 0.031 | V -0.476 ± 0.034 | I 0.045 ± 0.054 | E -0.46 ± 0.046
